One data set concerns acetylcholinesterase. The settings on record: cited from earlier work.
For data set [1], the system named is scoulerine. Briefly: CYP719 substrate affinity test on scoulerine in GC1333 (integrated PsCPR): Ring A / Ring B closure. The format is cell-based, Saccharomyces cerevisiae. The settings on record: single CYP719 with PsCPR, 16 hours. On the procedure:
To broadly identify CYP719 activities on BIAs, a substrate affinity test was performed with the protoberberine BIA scoulerine. CYP719s have been described to form methylenedioxy bridges on BIAs from an alcohol group and a methyl group on adjacent carbons. Two different rings can be made on scoulerine, which can be called “Ring A” and “Ring B”, with the BIA products being called “nandinine” and “cheilanthifoline”, respectively (see FIG. 19). CYP719-catalyzed formation of both Ring A and Ring B of scoulerine (“Ring A-closing activity” and “Ring B-closing activity”) has been identified and published. Certain CYP719 enzymes included in the affinity tests have published ring A and Ring B activities.
(§1) Plasmids harboring CYP719s were transformed into either GC1333 containing an integrated PsCPR (FIG. 10A) or GC1316 containing an integrated PsCPR and an integrated PsCFS (FIG. 10B). Strain GC1333, harboring PsCPR integrated into the chromosome, was transformed with pBOT plasmids, with GFP removed, harboring individual CYP719s (CYP719 EX41-105). (See Tables 7-8 below presenting the nature and activity of these CYP719s).
The resulting CYP719-harboring strains (strains SF41-105) were supplemented with scoulerine. After 16 hours, BIAs were extracted and the molar ratio of scoulerine to downstream BIAs was calculated (FIG. 10A).

A further data set relates to (S)-scoulerine. Put plainly: TNMT N-methylation test: GCY1101 versus GCY1127 fed (S)-scoulerine. The format is cell-based, Saccharomyces cerevisiae. On the procedure:
When cells of the Block 2-Block 3 double integrant were incubated with (S)-scoulerine, compounds with exact masses of 342.1710 m/z and 340.1548 m/z were detected in addition to expected sanguinarine pathway intermediates. These exact masses, and their CIDs, correspond to N-methylscoulerine and N-methylcheilanthifoline, respectively^36. […] To determine whether TNMT was responsible for the N-methylation of cheilanthifoline and scoulerine, the Block 2 integrant strain harbouring CPR on a plasmid (strain GCY1101) was compared with the Block 2 integrant strain harbouring both CPR and TNMT on a plasmid (strain GCY1127).
Because the applicants lacked standards to quantify the N-methylated products and since the three compounds are similar in structure, they assumed equal ionization efficiency and estimated their relative proportions by peak area: when strain GCY1127 is fed (S)-scoulerine, the expected product N-methylstylopine is 33%, while N-methylscoulerine is 7% and N-methylcheilanthifoline is 60% (FIG. 8B).

The test system of another data set is nandinine. Briefly: CYP719 Ring B closure of nandinine to stylopine in GC1333. The format is cell-based, Saccharomyces cerevisiae. Conditions: nandinine generated in vivo from scoulerine, in TE. On the procedure: FIG. 11A-B: showing conversion of (S)-cheilanthifoline (FIG. 11A) or (S)-nandinine (FIG. 11B) to (S)-stylopine by purchased CYP719s. Plasmids harboring CYP719s were transformed into GC1333 containing an integrated PsCPR. Strains were incubated with the appropriate BIA overnight, and then total BIAs were extracted and total molar ratios were compared. PsSPSΔN was used as a control.
The 10 CYP719s with 95% activity on Ring A of scoulerine and the 10 CYP719s with activity on Ring B of scoulerine were tested for activity on cheilanthifoline and nandinine, respectively, in order to generate a branched stylopine synthesis pathway. […] CYP719s PsCFS and EX101, capable of converting >98% of scoulerine to cheilanthifoline and nandinine, respectively, were incubated with scoulerine. After 16 h, cells were pelleted and the supernatant fraction was collected. The supernatant was then applied to fresh yeast strains in order to supplement them with either TE containing nandinine or cheilanthifoline as necessary.

The test system of data set [2] is scoulerine. Put plainly: CYP719s in GC1316 (integrated PsCPR and PsCFS) supplemented with scoulerine. The format is cell-based, Saccharomyces cerevisiae.
Excerpt: as §1
Plasmids harboring individual CYP719s were transformed into strain GC1316, which harbored PsCPR and PsCFS integrated into the genome. Strains were supplemented with scoulerine and after 16 hours total BIAs were extracted and the molar ratio was compared (FIG. 10B). The four possible BIAs that could be extracted were scoulerine, the single Ring A product nandinine, the single Ring B product cheilanthifoline, and the double Ring A, Ring B product stylopine.

The nature of data set [3]: Microsomal cytochrome P450 enzyme assay of PsCFS and PsSPSΔN incubated with (S)-scoulerine. The format is biochemical, Papaver somniferum. Conditions: microsomes with PsCPR; 125 μM (S)-scoulerine, 500 μM NADPH. As to the method:
The pESC-CPR vector encoding opium poppy cytochrome P450 reductase (PsCPR) fused to a c-Myc tag was used for the heterologous expression of plant proteins in S. cerevisiae^25. The amplicon was inserted into NotI and SpeI restriction sites of pESC-CPR in-frame with a FLAG-tag sequence yielding pESC-CPR/CFS. […]
Analysis of enzyme assays was performed using an Agilent™ 1200 liquid chromatography system equipped with a 6410 triple-quadrupole mass spectrometer (Agilent Technologies; Santa Clara, Calif.). […] Scoulerine, cheilanthifoline, and stylopine were detected in multiple reaction monitoring (MRM) mode using a collision energy of 25 eV and monitored transitions of m/z 328→178, 326→178 and 324→176, respectively.
Constructs for the heterologous expression of PsCFS and PsSPS in S. cerevisiae were assembled in a vector harbouring PsCPR (Table 1 above). […] No conversion of scoulerine was detected in the negative control. […]

In the case of `COc1cc2c(cc1O)[C@@H]1Cc3ccc(OC)c(O)c3C[N@+]1(C)CC2` [N-methylscoulerine], the described activity entry in the data set on acetylcholinesterase is reported as “acetylcholinesterase inhibitor”.

B1: EX46: CYP719 from Corydalis cheilanthifolia, SEQ ID NO: 325 (protein, listed as Corydalis cheilanthifolia)
chain: MVNAVAEILTEKPWLLPATLLAVIAIAKFFLGKSSTMKWPIGPKTLPIIGNMHQLGGTDLQVVLANLAKTYGTIMTIWVGSWRPMIVLSDIEKAWEVLVNKSSDYSGRAMPEITEIISAKGKTISTSDSGPHWSNLRKGLQNVALSPHNIAAQSRFQESDITKMIKTLKQEAASNNGIVQPLDHLKKSTVRLISRLIFGQDFDDDEYVEAMHLAVEELIRVSGYARLAEAFYYAKYLPSHKRAVSEVWEANRRVKRIVKPRLSANPPPNCYLHFLSSQDYSEEMIIFAIFEAYLLGVDSTSSTTAWALGFLIREPKVQERLYQELKNCAGENGLIKVEDINKLPYLQAVLKETMRMKPIAPLAIPHKAVRETSLAGNKVEPGTRVMVNLYAIHHNPKVWIDPHKFKPERFLQGEENGGGNLKLMEQSLLPFSAGMRTCAGMELGKLQFGFSLANLVNAFQWDCAKKGMFPDMSDLLGFVLLMKTPLQAKIVPRGSPSINGY
B1: the “conversion of scoulerine to the Ring A product nandinine (Ring A closure)” value in the data set on scoulerine [1] amounted to 66%.

B2: EX61: CYP719 from Eschscholzia californica, Q50LH3.1, SEQ ID NO: 340 (protein, listed as Eschscholzia californica)
chain: MEEMKILMMNNPWILTATATTLLISIFLFFTRKSSKMVWPAGPKTLPIIGNMHLLGGTALQVVLHNLAKVHGSVMTIWIGSWRPVIVVSDIERAWEVLVNKSSDYSARDMPDITKIISADWKTISTSDSGPHWTNLRKGLQNVALSPHNLAAQFQFQEKDMTKMIQTLQEEARNNNGIVKPLDHMKKATLRLISRLVFGQDFNNDKYVDDMHLAIEELIRVSGYARLAEAFYYAKYLPSHKKAVREVEEAQRRVQNLVSPFLSLNPPTNTYLHFLRSQKYDDEVIIFAIFEAYLLGVDSTSLTTAWALAFLIRESNVQEKLYQELESFASKMDRKILKVEDINKLQYLQAVIKETMRMKPIAPLAIPHKACRDTSLMGKKIDKGTRVMVNIYALHHNKNVFNDPFKFMPERFMKVDSQDANGKAMEQSLLPFSAGMRICAGMELGKLQFSFALANLAYAFKWSCVADGVLPDMSDQLGFVLLMKTPLEARINRRN
For B2, the “conversion of scoulerine to the Ring A product nandinine (Ring A closure)” value in the data set with scoulerine [1] was found to be 90%.

B3: TNMT: Papaver somniferum tetrahydroprotoberberine cis-N-methyltransferase, SEQ ID NO: 58 (protein, listed as Papaver somniferum)
chain: MGSIDEVKKESAGETLGRLLKGEIKDEELKKLIKFQFEKRLQWGYKSSHQEQLSFNLDFIKSLKKMEMSGEIETMNKETYELPSEFLEAVFGKTVKQSMCYFTHESATIDEAEEAAHELYCERAQIKDGQTVLDIGCGQGGLVLYIAQKYKNCHVTGLTNSKAQVNYLLKQAEKLGLTNVDAILADVTQYESDKTYDRLLMIEAIEHMKNLQLFMKKLSTWMTKESLLFVDHVCHKTFAHFFEAVDEDDWYSGFIFPPGCATILAANSLLYFQDDVSVVDHWVVNGMHMARSVDIWRKALDKNMEAAKEILLPGLGGSHETVNGVVTHIRTFCMGGYEQFSMNNGDEWMVAQLLFKKK
Turning to B3, the “substrate acceptance for N-methylation” value in the data set with (S)-scoulerine was “accepts both scoulerine and cheilanthifoline as substrates”.

B4: EX84: Papaver somniferum cheilanthifoline synthase, ADB89213.1, SEQ ID NO: 363 (protein, listed as Papaver somniferum)
chain: MEVTFWLITCGVVVAFALAKLLFGKKSSMSTMEWPSGPKTLPIIGNLHQLGGEAFHVCLANLAKVYGGVFTIWVGSWRPFIVISDVDKAWEVLVNKSSDYSARDMPDITKIISANWKNISHGDSGPFWHNLRKGLQGVALTPFNVASQYHLQERDMQNLIKSMKKKASQKNGILKPLDYVKEETVRLLSRLIFSQEFVDEDFVVGMHQALDELVSISGYASLADAFKFCENLPSHKKTIRAVHAIKIRFDNLIRPHIVSNPPTNTYLHFLLSQDFSEDVIISAILEVYDLGVDSTASTTVWALTFLVREQKIQEKLYREINNVTGGKRPVKVEDLNKLPYLQAVMKETMRMKPIAPMAIPHKASKDTSLMGKKINKGTVVMVNLYAIHHNPAVFPEPYKFMPERFLKDANSDGSLGDIKKMESSLLAFSAGMRICAGMELGKLQLAFGLASLVNEFKWDCVAEGKLPDLSEEHCFILLMKNPLEAKITPRIH
For the molecule B4, the “conversion of nandinine to stylopine” value in the data set on nandinine stood at 12%. The “conversion of scoulerine to cheilanthifoline” value with scoulerine [2] (PsCFS alone in GC1316) is listed as 100%. For the same molecule, the activity on nandinine result with scoulerine [2] (inferred from residual nandinine in GC1316 strains) is “little to no activity on nandinine”. The “conversion of (S)-scoulerine by microsomal proteins (LC-MS products)” value in data set [3] was “converted to cheilanthifoline”.

These data come from patent publication US20160340704A1, “METHOD OF MAKING A BENZYLISOQUINOLINE ALKALOID (BIA) METABOLITE, ENZYMES THEREFORE” (VALORBEC SOCIÉTÉ EN COMMANDITE, priority 2014, published 2016).
